pKi: −log10 of the molar value. Each block holds one sequence with its values, some of them ahead of it.
How the values were obtained:
[1] = molecular target: T1, EphA3 (Homo sapiens, UniProt P29320); test: EphA3 FP competition assay with 67-10-05 as labelled tracer; assay type: binding; details: tracer 67-10-05
T1 construct: So far all selections have been performed with soluble EphA3 ecto domain
T1 sequence (P29320 21-541 limits assumed): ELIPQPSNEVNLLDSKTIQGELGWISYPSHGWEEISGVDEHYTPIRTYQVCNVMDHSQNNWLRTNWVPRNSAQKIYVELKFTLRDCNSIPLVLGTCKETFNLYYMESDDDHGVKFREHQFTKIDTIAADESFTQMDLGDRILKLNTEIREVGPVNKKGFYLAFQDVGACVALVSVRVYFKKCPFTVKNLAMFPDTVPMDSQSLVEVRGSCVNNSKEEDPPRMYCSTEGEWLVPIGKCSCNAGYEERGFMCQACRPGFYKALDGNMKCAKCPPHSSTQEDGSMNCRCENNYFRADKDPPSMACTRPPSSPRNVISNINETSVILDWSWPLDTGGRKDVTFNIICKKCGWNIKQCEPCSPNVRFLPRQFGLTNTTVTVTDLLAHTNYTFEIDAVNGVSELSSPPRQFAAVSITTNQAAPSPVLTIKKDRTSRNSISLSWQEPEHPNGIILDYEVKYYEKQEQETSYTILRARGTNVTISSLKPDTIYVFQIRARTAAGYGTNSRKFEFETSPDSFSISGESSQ

[2] = molecular target: T2, MT1-MMP hemopexin domain (Homo sapiens, UniProt P50281); test: MMP-14 FP competition binding between peptide families
T2 construct: Human MMP-14 PEX protein at 71.1 μM monomer
Procedure: FIG. 6 illustrates an analysis of MT-MMP binding ligands. A: MMP-14 FP direct binding in cell-based selections; 1 nM tracer, 60 min data. 17-98-Sar6-k(FI)-and-17-99-Sar6-k(FI)-bind with Kds of 354 nM and 501 nM respectively. B: competition binding with several combinations of peptides, both fluorescein-labelled or native, from soluble and cell based selections.
FIG. 7 illustrates the competition profile between peptide ligands isolated in this example.
• Human MMP-14 PEX protein at 71.1 μM monomer (previously 77.1 μM) (T-017-011), stored in fridge (4/7/14) • Peptides as described in Results section
Method: • Prepare assay buffer: 20 mM HEPES, 150 mM NaCl, 1 mM CaCl2), 0.1% Tween20 (pH 7.6). Buffer was filtered before use to remove precipitate. • Method according to Example 3 with tracer at 1 nM and MMP-14 PEX at concentrations detailed in the graphs • 60 min data analysed • Results are shown in FIG. 6.

[3] = molecular target: T3, CCR4 (Homo sapiens, UniProt P51679); test: PathHunter eXpress CCR4 CHO-K1 β-Arrestin GPCR Assay, agonist format; assay type: cell-based
T3 construct: host or cells: CHO-K1
T3 sequence (P51679 1-360): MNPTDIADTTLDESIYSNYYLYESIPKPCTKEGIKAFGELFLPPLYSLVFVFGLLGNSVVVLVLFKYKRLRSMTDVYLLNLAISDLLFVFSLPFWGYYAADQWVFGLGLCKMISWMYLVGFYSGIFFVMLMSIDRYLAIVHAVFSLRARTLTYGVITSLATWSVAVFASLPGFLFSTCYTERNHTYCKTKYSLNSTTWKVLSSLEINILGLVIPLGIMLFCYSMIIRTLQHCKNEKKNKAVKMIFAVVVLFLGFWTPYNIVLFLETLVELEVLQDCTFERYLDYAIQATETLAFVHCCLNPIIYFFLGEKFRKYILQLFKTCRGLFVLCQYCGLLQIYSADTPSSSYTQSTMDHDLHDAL
Procedure: (§1) The aim of the present experiment was to analyze if if these peptides are functional using a Discoverx Assay, the Beta-Arrestin recruitment assay, to identify agonism or antagonism in the selected peptides.
(§2) Standard protocols used: • PathHunter® eXpress CCR4 CHO-K1 β-Arrestin GPCR Assay. 100 dp (1×96-well)
(§3) The experiment was carried using the manufacturer instructions.
The concentration was increased to test for response at high concentration.

[4] = molecular target: T3, CCR4; test: PathHunter eXpress CCR4 CHO-K1 β-Arrestin GPCR Assay, antagonist format with CCL22; assay type: cell-based
Procedure: as §1, §2, §3
We therefore used the assay in an antagonist format, using 10 nM CCL22.
We repeated this experiment lowering the concentration of CCL22 from 10 nM to 1 nM to show a full inhibition curve.

pKi [1]: 8.27
Sequence: CIPDPYQCVILRQPC [67-10-05-N005, EphA3 peptide ligand, 6X6 loops, from soluble selection; used as labelled tracer]

binding site on MT1-MMP [2]: binds to the collagen binding site | competition with other peptide families [2]: do not cross compete
Sequence: CPYSWETCLFGDYRC [Peptide 17-88, peptide ligand family from soluble selections against MT1-MMP hemopexin domain]

Raw Data ([3]; 0.006 nM): 27836 | Raw Data ([3]; 0.02 nM): 26107 | Raw Data ([3]; 0.06 nM): 29865 | Raw Data ([3]; 0.17 nM): 29746 | Raw Data ([3]; 0.51 nM): 27025 | Raw Data ([3]; 1.5 nM): 27917 | Raw Data ([3]; 4.6 nM): 25017 | Raw Data ([3]; 13.9 nM): 23972 | Raw Data ([3]; 41.7 nM): 23928 | Raw Data ([3]; 125 nM): 23999 | Raw Data ([3]; 375 nM): 22611 | Raw Data ([3]; high concentration, 0.001 uM): 11608 | Raw Data ([3]; high concentration, 0.003 uM): 11809 | Raw Data ([3]; high concentration, 0.008 uM): 13248 | Raw Data ([3]; high concentration, 0.023 uM): 13984 | Raw Data ([3]; high concentration, 0.1 uM): 14856 | Raw Data ([3]; high concentration, 0.2 uM): 15518 | Raw Data ([3]; high concentration, 0.6 uM): 15965 | Raw Data ([3]; high concentration, 1.9 uM): 17244 | Raw Data ([3]; high concentration, 5.6 uM): 17261 | Raw Data ([3]; high concentration, 16.7 uM): 16709 | Raw Data ([3]; high concentration, 50 uM): 16749 | Raw Data ([4]; 1 nM CCL22, 0.001 uM): 272073 | Raw Data ([4]; 1 nM CCL22, 0.003 uM): 292052 | Raw Data ([4]; 1 nM CCL22, 0.008 uM): 301675 | Raw Data ([4]; 1 nM CCL22, 0.023 uM): 285103 | Raw Data ([4]; 1 nM CCL22, 0.1 uM): 296795 | Raw Data ([4]; 1 nM CCL22, 0.2 uM): 246983 | Raw Data ([4]; 1 nM CCL22, 0.6 uM): 252179 | Raw Data ([4]; 1 nM CCL22, 1.9 uM): 240952 | Raw Data ([4]; 1 nM CCL22, 5.6 uM): 197381 | Raw Data ([4]; 1 nM CCL22, 16.7 uM): 125610 | Raw Data ([4]; 1 nM CCL22, 50 uM): 114156 | Raw Data ([4]; 10 nM CCL22, 0.001 uM): 164018 | Raw Data ([4]; 10 nM CCL22, 0.003 uM): 174559 | Raw Data ([4]; 10 nM CCL22, 0.008 uM): 143078 | Raw Data ([4]; 10 nM CCL22, 0.023 uM): 164921 | Raw Data ([4]; 10 nM CCL22, 0.1 uM): 153182 | Raw Data ([4]; 10 nM CCL22, 0.2 uM): 151630 | Raw Data ([4]; 10 nM CCL22, 0.6 uM): 146982 | Raw Data ([4]; 10 nM CCL22, 1.9 uM): 132070 | Raw Data ([4]; 10 nM CCL22, 5.6 uM): 148721 | Raw Data ([4]; 10 nM CCL22, 16.7 uM): 140316 | Raw Data ([4]; 10 nM CCL22, 50 uM): 153988
Sequence: ACRAVHSLRCLTTCA [24-17-00-N001, bicyclic peptide ligand, TATA scaffold, from CCR4 cell-based selection]

Ki (nM) [1]: No binding
Sequence: CRASAGQCNPDPKLC [67-24-00-N001, EphA3 peptide from cell-based screening, 6X6 loops]
